In patent US6416957, “Method for modulating process mediated by farnesoid activated receptors” (The Salk Institute for Biological Studies):

Biological target: FAR (FXR)-RXRalpha heterodimer (Rattus norvegicus / Homo sapiens, UniProt Q62735;P19793 Q62735:1-469,P19793:1-462)
Test: cell_activity; 50 uM JH III, CV-1 cells; 17-fold JH III, 76-fold LG69, 212-fold both in p89; parental MTV reporter lacking EcREs not activated
Conditions: tags: CMV-driven expression in CV-1 cells
Experimental: Thus, with reference to FIG. 5A, CV-1 cells were transiently transfected with hsp27-EcRE×5 MTV-luciferase alone (−) or with expression vectors for rat FAR and/or human RXRα. Reporter activity was assayed after treating cells with or without 50 μM JH III.

Chain of FAR (FXR)-RXRalpha heterodimer (Q62735 whole entry, chain 1 of 2): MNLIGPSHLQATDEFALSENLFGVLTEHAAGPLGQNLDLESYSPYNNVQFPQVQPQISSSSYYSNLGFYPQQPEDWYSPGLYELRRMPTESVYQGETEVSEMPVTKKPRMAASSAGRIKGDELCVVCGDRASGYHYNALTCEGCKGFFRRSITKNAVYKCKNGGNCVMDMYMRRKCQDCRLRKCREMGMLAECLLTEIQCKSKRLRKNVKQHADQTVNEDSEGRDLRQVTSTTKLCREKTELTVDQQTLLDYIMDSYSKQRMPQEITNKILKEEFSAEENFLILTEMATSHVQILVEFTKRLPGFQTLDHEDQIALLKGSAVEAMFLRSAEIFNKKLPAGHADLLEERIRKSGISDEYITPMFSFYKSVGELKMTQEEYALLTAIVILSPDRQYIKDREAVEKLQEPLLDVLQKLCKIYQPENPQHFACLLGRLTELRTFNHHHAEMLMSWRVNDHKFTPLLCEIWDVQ
Chain of FAR (FXR)-RXRalpha heterodimer (P19793 whole entry, chain 2 of 2): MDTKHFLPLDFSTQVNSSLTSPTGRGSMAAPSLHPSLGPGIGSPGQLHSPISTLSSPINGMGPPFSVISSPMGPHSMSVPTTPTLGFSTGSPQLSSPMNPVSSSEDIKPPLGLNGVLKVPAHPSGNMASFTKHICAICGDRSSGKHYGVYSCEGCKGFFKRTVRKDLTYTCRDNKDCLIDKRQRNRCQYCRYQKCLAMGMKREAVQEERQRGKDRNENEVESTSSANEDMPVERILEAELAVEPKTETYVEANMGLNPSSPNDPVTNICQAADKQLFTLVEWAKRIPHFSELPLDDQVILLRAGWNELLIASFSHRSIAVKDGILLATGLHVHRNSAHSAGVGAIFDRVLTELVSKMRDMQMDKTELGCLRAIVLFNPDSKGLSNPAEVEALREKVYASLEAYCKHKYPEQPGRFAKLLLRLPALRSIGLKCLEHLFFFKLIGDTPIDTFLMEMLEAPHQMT

B1: hsp27-EcREx5 MTV-luciferase reporter (dsDNA)
DNA 1: GGTTCAATGCACT
DNA 2: AGTGCATTGAACC
  activity: 10 fold
